From patent US6500919B1, “Melanoma associated antigenic polypeptide, epitopes thereof and vaccines against melanoma” (IntroGene B.V., priority 1994, dated 2002)

Tests used:
[1] = molecular target: T1, HLA-A2.1 (Homo sapiens, UniProt P04439, D140Y/D185E/D98H/E176V/E277Q/G131W/G231S/I119V/I121R/I166T/I218V/L300P/L318F/N151K/N90K/P208A/P217A/Q86G/Q94H/R138H/R169H/T345S); assay: HLA-A2.1 peptide binding assay (HLA-A2.1 stabilization on processing defective T2 cells, flow cytometry with mAb BB7.2)
T1 construct: HLA-A2.1 stabilization at the cell surface was determined by flow cytometry using mAb BB7.2; endogenous in cells; host or cells: T2 cells (processing defective, HLA-A2.1+)

[2] = system: peptide loaded HLA-A2.1+ T2 cells
[3] = molecular target: T2, HLA-A2.1 (on processing defective T2 cells) (human); assay: peptide binding assay on processing defective T2 cells
T2 construct: also called MHC HLA-A2.1 molecule

| Molecule | binding to the MHC HLA-A2.1 molecule [1] | further results |
| --- | --- | --- |
| V-L-P-D-G-Q-V-I-W-V (VLPDGQVIWV) | bind | – |
| R-L-M-K-Q-D-F-S-V (RLMKQDFSV) | bind | – |
| CC(C)C[C@H](NC(=O)[C@H](CCCNC(=N)N)NC(=O)[C@H](CC(C)C)NC(=O)[C@@H](NC(=O)[C@H](C)NC(=O)[C@@H](NC(=O)CNC(=O)[C@H](CC(=O)O)NC(=O)[C@H](CC(C)C)NC(=O)[C@@H](N)CC(C)C)[C@@H](C)O)[C@@H](C)O)C(=O)O [L-L-D-G-T-A-T-L-R-L] | – | recognized by anti-melanoma cytotoxic T lymphocytes in the context of HLA-A2.1 [2]: recognized |
| M-L-G-T-H-T-M-E-V (MLGTHTMEV) | bind | – |
| LLDGTATLRL (also called gp100 amino acids 457-466) [gp100 peptide LLDGTATLRL] | – | binding result [3]: binds |
